Tests used:
[1] = Comparable ex vivo APTT study, human
[2] = Activated partial thromboplastin time (APTT) in arteriovenous shunt model; assay type: in vivo, Sprague-Dawley male rats; conditions: SEQ ID NO:2 33.3 mg/kg i.v. 5 min prior; Rivaroxaban 10 mg/kg p.o. 90 min prior
[3] = test system: CD11b+CD14+ white blood cells; assay: Flow cytometry of CD11b and CD14 on white blood cells after LPS injection; assay type: in vivo, C57BL/6 mice; conditions: 2 h after LPS
Protocol: Female C57BL/6 mice (Taconic Biosciences) were 8 weeks of age at the start of the study. Animals had free access to autoclaved and acidified drinking water. Animals were housed under standard laboratory conditions, air conditioned and filtered with adequate fresh air supply. Animals were kept in a climate controlled environment.
SEQ ID NO:2 (Biospring) (100 mg) was dissolved in 5 ml saline to form a stock solution of 20 mg/ml. Vehicle is saline solution.
Dexamethasone stock was prepared by mixing dexamethasone and beta-cyclodextrin at a 4:96 ratio, solubilized in PBS at 2 mg dexamethasone/mL and stored at −20° C. Dosing solution of dexamethasone was prepared by diluting the stock solution to 1 mg/mL with PBS. Dexamethasone administered at 5 to 10 mg/kg, i.p. is used as a positive control for suppression of the immune response.
Two hours after LPS injection mice were bled and blood samples were taken. Flow cytometry study was performed on BD FACSCalibur (lasers: 488 nm; 635 nm and UV). In our study we measured the expression of integrin Mac-1 (CD11b/18) on leukocytes by means of flow cytometry. Expression of CD11b on all leukocytes monocytes and granulocytes were assessed by flow cytometry using double fluorescence staining (CD 45/CD11b).

[4] = Prothrombin time in arteriovenous shunt model; assay type: in vivo, Sprague-Dawley male rats; conditions: SEQ ID NO:2 33.3 mg/kg i.v. 5 min prior; Rivaroxaban 10 mg/kg p.o. 90 min prior
Protocol: FIG. 2: Anti-coagulant activity of SEQ ID NO:2 in Arteriovenous Shunt model. Male rats were intravenously injected with saline (Vehicle) or SEQ ID NO:2 solution, according to their body weight. Rivaroxaban was orally administered to the positive control group. 5 to 90 minutes after administration, rats were anesthetized with pentobarbital-na (50 mg/kg). The left jugular vein and the right carotid artery of anesthetized rats were connected with two catheters. The thrombus weight formed on the thread was calculated by subtracting the average weight of the rough nylon thread (A). Prothrombin times were measured (B) and Activated partial thromboplastin times (APTT) were analysed (C). Each bar represents the mean±SEM (n=8 for vehicle and rivaroxaban groups, n=3 for SEQ ID NO:2 group), *p<0.05, **p<0.01, ***p<0.001 vs Vehicle.
The animals were assigned to 3 dosing groups according to the body weight (see table 2). Vehicle treated animals were intravenously injected with saline 90 min prior to shunt assay. The positive control treated animals were orally given Rivaroxaban 10 mg/kg at 90 min prior to shunt assay. SEQ ID NO:2 was intravenously injected 5 min prior to shunt assay.

[5] = LPS-induced mortality, survival assay; assay type: in vivo, C57BL/6 mice; conditions: 72 hours
Protocol: In this study, female C57BL/6 mice of 10-12 weeks old (Taconic Biosciences) were used. Animals had free access to autoclaved and acidified drinking water. Animals were housed under standard laboratory conditions, air conditioned and filtered with adequate fresh air supply. Animals were kept in a climate controlled environment.
Lipopolysaccharide (LPS) from E. coli (O111:B4) was diluted in PBS.
SEQ ID NO:2 was stored in powder form at 4° C. until use. Powder was added to saline and vortexed into solution to prepare SEQ ID NO:2 stock solution.
For all other groups, LPS was injected intraperitoneally at 10 mg/kg. Mice were intravenously injected 15 minutes and 60 minutes after LPS administration with SEQ ID NO:2 at concentrations of 10, 25, 50 and 100 mg/kg. Except group 6, which was intravenously injected once at 15 minutes and once at 120 minutes after LPS administration.
When high doses of LPS are administered, animals will suffer LPS-induced shock and mortality may be observed. For 72 hours after LPS injection, mice were checked for mortality several times each day. All surviving mice were euthanized at the end of the study (day 3).

[6] = Comparable ex vivo APTT study, mouse
[7] = Arteriovenous shunt model, thrombus weight; assay type: in vivo, Sprague-Dawley male rats; conditions: SEQ ID NO:2 33.3 mg/kg i.v. 5 min prior; Rivaroxaban 10 mg/kg p.o. 90 min prior; 15 min extracorporeal circulation
Protocol: This study was conducted at Shanghai WuXi AppTec Co., Ltd., and in accordance with WuXi IACUC standard animal procedures along with the IACUC guidelines that are in compliance with the Animal Welfare Act, the Guide for the Care and Use of Laboratory Animals, and the Office of Laboratory Animal Welfare (OLAW). Sprague-Dawley male rats with body weight ranging between 150-200 g (Vital River; Bejing, P.R. China) were fed ad libitum a rodent diet. Animals had free access to autoclaved and acidified drinking water. Animals were housed under standard laboratory conditions, air conditioned and filtered with adequate fresh air supply. Animals were kept in a climate controlled environment. Rivaroxaban (10 mg/kg) has been dissolved in water and stored at 4° C. 20 mg SEQ ID NO:2 (Biospring) was dissolved in 3 ml Saline, vortexed for 5 min., sonicated with a water bath ultrasonic for 1 minute to achieve 6.66 mg/ml SEQ ID NO:2. The animals were assigned to 3 dosing groups according to the body weight (see table 2). […] Extracorporeal circulation was maintained for 15 min, the thrombus weight formed on the thread was calculated by subtracting the average weight of the rough nylon thread. Significance of difference between control and treated groups was analyzed by performing analysis of variance (ANOVA) by EXCEL office software.

B1: SEQ ID NO:2: nucleic acid sequence of SEQ ID NO:1 in which each C and U is fluorinated to increase stability in plasma (nucleic acid)
chain: GGGAAUUCGAGCUCGGUACCAACAAUACGACUACACCAUCAAAAGUAUUAUCUUGCAUCGAAGGUUGGCACGUAGCAAGCUCUGCAGUCG
modifications: fluorinated C and U; (6)..(7) uracil is fluorinated; (8)..(8) cytosine is fluorinated; (12)..(12) cytosine is fluorinated; (13)..(13) uracil is fluorinated; (14)..(14) cytosine is fluorinated; (17)..(17) uracil is fluorinated; (19)..(20) cytosine is fluorinated; (23)..(23) cytosine is fluorinated; (26)..(26) uracil is fluorinated; (28)..(28) cytosine is fluorinated; (31)..(31) cytosine is fluorinated; (32)
Question: What does the source list for B1?
Answer: positive effect on APTT [1]: confirmed; Activated Partial Thromboplastin Time (APTT) compared to vehicle group [2]: significant increase; expression of CD11b compared to vehicle group ([3]; 5 mg/kg i.v.): similar; proportion of CD11b+CD14+ cells in white blood cells compared to vehicle group ([3]; 5 mg/kg i.v.): similar; proportion of CD11b+CD14+ cells in white blood cells compared to vehicle group ([3]; 25 mg/kg i.v.): significantly lower; expression of CD11b compared to vehicle group ([3]; 25 mg/kg i.v., not statistically significant): lower; lower expression of CD11b, difference to vehicle group ([3]; 50 mg/kg i.v.): statistically significant; proportion of CD11b+CD14+ cells in white blood cells compared to vehicle group ([3]; 50 mg/kg i.v.): significantly lower; Prothrombin times compared to vehicle group [4]: did not show any significant difference; survival compared to vehicle treated mice ([5]; 25 mg/kg i.v. twice after LPS 10 mg/kg i.p.): significantly improved; survival compared to vehicle treated mice ([5]; 50 mg/kg i.v. twice after LPS 10 mg/kg i.p.): significantly improved; survival compared to vehicle treated mice ([5]; 100 mg/kg i.v. twice after LPS 10 mg/kg i.p.): significantly improved; positive effect on APTT [6]: confirmed; thrombus weight, less than vehicle group [7]: 48.1%
